Among the data in patent US20160122432A1 (INSERM INSTITUT NATIONAL DE LA SANTE ET DE LA RECHERCHE …, published 2016) are Kd values, retold here.

In this experiment the target is T1, human HER2 receptor (human, UniProt P04626 23-1255).
T1 construct: whole, on cells; Endogenous HER2 on human cancer cell lines; also called Human Epidermal Growth Factor Receptor 2; Neu
As to the kind of experiment: flow cytometry, biotinylated antibody titrated on SK-BR-3 cells, PE-streptavidin, apparent affinity. The text has this: After a washing step, bound antibodies were detected using PE-labeled streptavidin and analyzed by FACS. The inverse of the fluorescence was plotted as a function of the inverse of antibody concentration.
A general note: A flow cytometer gives signals particle by particle.

B1: HER2.C7b sdAb (VHH, not shown: small tags and cut ends)
VHH: QVQLVQSGGGLVQAGGSLRLSCAASGRTFSSYAMAWFRQAPGKEREFVAAISWSGANIYVADSVKGRFTISRDNAKDTVYLQMNSLKPEDTAVYYCAVKLGFAPVEERQYDYWGQGTQVTVSS
modifications: biotinylated in vitro (Ez-link micro NHS-PEO4-biotinylation kit) for the affinity determination; sites not stated
notes: also called sdAb HER2.C7b; anti HER2 sdAb HER2.C7b
Take B1: the Kd worked out at 51.6 nM.

B2: HER2.C7b-Fc (Fc fusion)
chain: QVQLVQSGGGLVQAGGSLRLSCAASGRTFSSYAMAWFRQAPGKEREFVAAISWSGANIYVADSVKGRFTISRDNAKDTVYLQMNSLKPEDTAVYYCAVKLGFAPVEERQYDYWGQGTQVTVSS
modifications: biotinylated in vitro for the affinity determination; sites not stated
notes: Bivalent for HER2: two HER2.C7b sdAb fused to the constant part of human IgG1; also called Sdab HER2.C7b-Fc; aHER2.C7b-Fc; not shown: hinge, CH1 and CH2 domains of a human IgG1 (so in the source)
Take B2: the Kd was determined as 2.9 nM.
